The results in this text go back to patent US20240262869A1.

In assay [1] the target is ACE2-hFc (human) (UniProt Q9BYF1).
For assay [2] the target is unchanged. This is another data set of the same source.
The target of assay [3] is neutralizing antibody CR3022. The assay is described as follows: SPR (ProteOn XPR36), CR3022 captured on Protein G.
Assay [4] concerns the target neutralizing antibody CR3022.
Assay [5] concerns the target neutralizing antibody CR3022. This is another data set of the same source.
The target of assay [6] is neutralizing antibody CR3022. The source holds these as a separate data set.
For assay [7], the target named is neutralizing antibody CR3022. Briefly: SPR, immobilized CR3022.
In assay [8] the target is neutralizing antibody CR3022. The assay is described as follows: SPR, CR3022 captured on Protein G, tagless pInCV02R as analyte (FIG. 11D).
Assay [9] concerns the target neutralizing antibody CR3022. The source holds these as a separate data set.
The target of assay [10] is ACE2-hFc (human) (UniProt Q9BYF1). The source holds these as a separate data set.
Assay [11] has the same target. The source holds these as a separate data set.

Several values for one entry are separate records, joined by “and”; a condition that tells them apart may be missing. Equal entries are not always repeated. Where two headings read alike, the source gives them in different places.

Sequence of ACE2-hFc (human) (Q9BYF1 18-740 limits assumed): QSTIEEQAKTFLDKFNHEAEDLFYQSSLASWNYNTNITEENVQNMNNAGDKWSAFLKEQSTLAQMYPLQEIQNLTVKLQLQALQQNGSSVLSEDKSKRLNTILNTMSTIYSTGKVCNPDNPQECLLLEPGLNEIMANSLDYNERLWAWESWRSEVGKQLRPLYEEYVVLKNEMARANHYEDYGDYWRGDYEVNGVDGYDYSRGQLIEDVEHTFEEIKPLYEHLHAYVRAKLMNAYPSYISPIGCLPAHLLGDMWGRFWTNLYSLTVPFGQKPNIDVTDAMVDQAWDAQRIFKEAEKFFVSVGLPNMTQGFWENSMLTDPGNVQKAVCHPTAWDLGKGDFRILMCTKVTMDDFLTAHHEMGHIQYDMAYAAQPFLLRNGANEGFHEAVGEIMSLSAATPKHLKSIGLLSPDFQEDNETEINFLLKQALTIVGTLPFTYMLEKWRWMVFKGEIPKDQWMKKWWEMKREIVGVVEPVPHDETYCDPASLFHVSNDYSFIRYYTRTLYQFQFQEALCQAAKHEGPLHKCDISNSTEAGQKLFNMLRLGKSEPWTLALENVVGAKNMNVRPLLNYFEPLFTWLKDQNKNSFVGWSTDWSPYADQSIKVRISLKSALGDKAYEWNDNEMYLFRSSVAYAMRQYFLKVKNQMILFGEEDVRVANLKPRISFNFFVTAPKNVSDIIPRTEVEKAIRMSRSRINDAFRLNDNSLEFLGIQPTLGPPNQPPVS

Consider “MsDPS2-SpyTag-mRBD-SpyCatcher conjugate (other; other documents disagree on this pair)”, for which the kon in assay [1] is 2.3e+06 M⁻¹ s⁻¹; in assay [2] it was greater than 1e+06 M⁻¹ s⁻¹.

Turning to “mInCV26R (SARS CoV-2 RBD with hCMP at the C-terminal and EIS at the N-terminal) (ligand; other documents disagree on this pair)”, the kon in assay [1] is 360000 M⁻¹ s⁻¹.

In [3], “mInCV01R (SARS CoV-2 RBD) having EIS at the N-terminal (from UniProt P0DTC2 331-532) (ligand)” returned a Kd of 1.3 nM.

“mInCV21R (SARS CoV-2 hCMP-RBD) having EIS at the N-terminal (ligand)”: the Kd in assay [4] was less than 1 nM. For the same substance, the kon in assay [5] was 310000 M⁻¹ s⁻¹.

Take MsDPS2-SpyTag-mRBD-SpyCatcher conjugate: the kon in [6] was greater than 1e+06 M⁻¹ s⁻¹; in assay [5], 4.2e+06 M⁻¹ s⁻¹.

In turn, “mInCV26R (SARS CoV-2 RBD with hCMP at the C-terminal and EIS at the N-terminal) (ligand)” showed a kon in assay [5] of 480000 M⁻¹ s⁻¹.

For “mInCV29R (SARS CoV-2 RBD with GlyIZ at C-terminal and EIS at the N-terminal) (ligand)”, the Kd in assay [7] is 3 nM and 5 nM. In assay [5], this substance came in with a Kd of 4.8 nM, a koff of 0.00097 s⁻¹ and a kon of 200000 M⁻¹ s⁻¹.

On to “mInCV29R (SARS CoV-2 RBD with GlyIZ at C-terminal and EIS at the N-terminal) (ligand; other documents disagree on this pair)”, for which, in assay [1], the dissociation constant (Kd) turned out to be 3 nM, the koff worked out at 0.0004 s⁻¹ and the kon was 130000 M⁻¹ s⁻¹.

Turning to “pInCV02R (SARS CoV-2 RBD N-1 (332-532)) (from UniProt P0DTC2 332-532) (ligand)”, the Kd was 30 nM in assay [8] and 29.5 nM in assay [9].

As to “mInCV21R (SARS CoV-2 hCMP-RBD) having EIS at the N-terminal (ligand; other documents disagree on this pair)”, in [1], the kon was determined as 200000 M⁻¹ s⁻¹. Moreover, the Kd in assay [10] was less than 1 nM. Also, in assay [11], the Kd amounted to 0.21 nM, the koff turned out to be 8.2e-05 s⁻¹ and the kon stood at 400000 M⁻¹ s⁻¹.
